# Laboratory results published in patent US20220144960A1 (NANJING LEGEND BIOTECH, published 2022).
# T1: rhesus CD30 ECD (rhesus, UniProt P28908 19-379 (human entry))
# T1 construct: Produced in house; also called recombinant rhesus CD30; rhesus CD30 protein
# T1 chain: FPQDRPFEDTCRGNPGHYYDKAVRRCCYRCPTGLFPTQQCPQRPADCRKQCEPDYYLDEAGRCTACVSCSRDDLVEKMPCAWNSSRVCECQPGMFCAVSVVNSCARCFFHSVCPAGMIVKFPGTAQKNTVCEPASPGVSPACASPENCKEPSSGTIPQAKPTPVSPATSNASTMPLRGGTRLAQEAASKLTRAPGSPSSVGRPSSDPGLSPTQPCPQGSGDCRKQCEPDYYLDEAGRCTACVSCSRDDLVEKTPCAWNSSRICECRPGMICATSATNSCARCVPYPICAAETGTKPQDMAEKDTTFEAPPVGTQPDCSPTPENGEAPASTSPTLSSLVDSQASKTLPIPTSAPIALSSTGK
# T2: CD30 on CD30-expressing tumor cell lines (HH, MJ, H9) (UniProt P28908 19-595)
# T2 sequence (looked up): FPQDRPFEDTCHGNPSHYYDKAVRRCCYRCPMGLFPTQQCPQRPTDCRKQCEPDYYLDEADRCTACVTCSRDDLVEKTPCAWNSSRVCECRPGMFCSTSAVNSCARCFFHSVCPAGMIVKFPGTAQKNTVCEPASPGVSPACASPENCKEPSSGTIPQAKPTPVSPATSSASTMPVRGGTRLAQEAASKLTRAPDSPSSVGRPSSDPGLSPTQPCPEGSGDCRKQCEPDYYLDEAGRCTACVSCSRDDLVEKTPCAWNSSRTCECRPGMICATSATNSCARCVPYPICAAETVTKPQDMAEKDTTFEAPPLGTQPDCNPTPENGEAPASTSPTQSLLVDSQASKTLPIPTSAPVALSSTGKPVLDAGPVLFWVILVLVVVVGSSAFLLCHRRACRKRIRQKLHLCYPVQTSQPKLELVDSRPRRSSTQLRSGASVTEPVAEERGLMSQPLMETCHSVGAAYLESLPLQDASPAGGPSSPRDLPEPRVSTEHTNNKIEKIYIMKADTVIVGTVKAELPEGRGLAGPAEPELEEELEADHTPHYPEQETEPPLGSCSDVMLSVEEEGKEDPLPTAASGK
# T3: recombinant human CD30 extra cellular domain (ECD) protein (human, UniProt P28908 19-379)
# T3 construct: Bought from R&D systems; also called rhCD30; human CD30 ECD
# T3 sequence: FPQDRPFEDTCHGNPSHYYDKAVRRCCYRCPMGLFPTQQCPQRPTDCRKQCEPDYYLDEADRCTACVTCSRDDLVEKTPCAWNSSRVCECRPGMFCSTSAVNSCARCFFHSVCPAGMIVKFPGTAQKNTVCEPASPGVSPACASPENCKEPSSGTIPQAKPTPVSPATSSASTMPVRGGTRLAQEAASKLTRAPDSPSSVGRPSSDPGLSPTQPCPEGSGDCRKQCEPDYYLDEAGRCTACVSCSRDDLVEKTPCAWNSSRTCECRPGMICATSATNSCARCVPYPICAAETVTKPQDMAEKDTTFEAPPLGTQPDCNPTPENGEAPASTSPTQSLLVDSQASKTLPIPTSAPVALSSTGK
# B1: AS48481 sdAb (VHH)
# VHH: EVQLVASGGGSVQAGETLRLSCTASGFTFADSAMGWYRKGPGNVCDLVAIIRTDGTTYYGDSAKGRFTISRDNAKSTLYLQMNSLKPEDTAVYFCAADRETSFIGGSWCVAKYWDQGTQVTVSS
# notes: Camel sdAb
# B2: AS48542VH5dil-bbz CAR (other)
# chain: EVQLVESGGGLVQPGGSLRLSCATSAFTFDGPDMAWYRQAPGKGCELVSIISADGRTYYADSVKGRFTISRDNSKNTVYLQMNSLRAEDTAVYYCALDPRKNCRGGYCCANWGQGTLVTVSSGGGGSGGGGSGGGGSEVQLVESGGGLVQPGGSLRLSCATSAFTFDGPDMAWYRQAPGKGCELVSIISADGRTYYADSVKGRFTISRDNSKNTVYLQMNSLRAEDTAVYYCALDPRKNCRGGYCCANWGQGTLVTVSSTTTPAPRPPTPAPTIASQPLSLRPEACRPAAGGAVHTRGLDFACDIYIWAPLAGTCGVLLLSLVITLYCKRGRKKLLYIFKQPFMRPVQTTQEEDGCSCRFPEEEEGGCELRVKFSRSADAPAYKQGQNQLYNELNLGRREEYDVLDKRRGRDPEMGGKPRRKNPQEGLYNELQKDKMAEAYSEIGMKGERRRGKGHDGLYQGLSTATKDTYDALHMQALPPR
# B3: AS47863VH4dil-bbz CAR (other)
# chain: EVQLVESGGGLVQPGGSLRLSCAASGSTFGDSDMGWYRQAPGKGCELVSIISSDGRTYYVDSVKGRFTISQDNSKNTLYLQMNSLRAEDTAVYYCAADLRQYCRDGRCCGYWGQGTLVTVSSGGGGSGGGGSGGGGSEVQLVESGGGLVQPGGSLRLSCAASGSTFGDSDMGWYRQAPGKGCELVSIISSDGRTYYVDSVKGRFTISQDNSKNTLYLQMNSLRAEDTAVYYCAADLRQYCRDGRCCGYWGQGTLVTVSSTTTPAPRPPTPAPTIASQPLSLRPEACRPAAGGAVHTRGLDFACDIYIWAPLAGTCGVLLLSLVITLYCKRGRKKLLYIFKQPFMRPVQTTQEEDGCSCRFPEEEEGGCELRVKFSRSADAPAYKQGQNQLYNELNLGRREEYDVLDKRRGRDPEMGGKPRRKNPQEGLYNELQKDKMAEAYSEIGMKGERRRGKGHDGLYQGLSTATKDTYDALHMQALPPR
# B4: AS53574VH7-AS48542VH5bil-bbz CAR (other)
# chain: EVQLVESGGGLVQPGGSLRLSCAASGYIYSSNCMGWFRQAPGKGREWVARIHTGSGSTYYADSVKGRFTISQDNSKNTLYLQMNSLRAEDTAVYDCAAGRVVLGAVVCTNEYWGQGTLVTVSSGGGGSGGGGSGGGGSEVQLVESGGGLVQPGGSLRLSCATSAFTFDGPDMAWYRQAPGKGCELVSIISADGRTYYADSVKGRFTISRDNSKNTVYLQMNSLRAEDTAVYYCALDPRKNCRGGYCCANWGQGTLVTVSSTTTPAPRPPTPAPTIASQPLSLRPEACRPAAGGAVHTRGLDFACDIYIWAPLAGTCGVLLLSLVITLYCKRGRKKLLYIFKQPFMRPVQTTQEEDGCSCRFPEEEEGGCELRVKFSRSADAPAYKQGQNQLYNELNLGRREEYDVLDKRRGRDPEMGGKPRRKNPQEGLYNELQKDKMAEAYSEIGMKGERRRGKGHDGLYQGLSTATKDTYDALHMQALPPR
# B5: AS53574VH7-AS47863VH4bil-bbz CAR (other)
# chain: EVQLVESGGGLVQPGGSLRLSCAASGYIYSSNCMGWFRQAPGKGREWVARIHTGSGSTYYADSVKGRFTISQDNSKNTLYLQMNSLRAEDTAVYDCAAGRVVLGAVVCTNEYWGQGTLVTVSSGGGGSGGGGSGGGGSEVQLVESGGGLVQPGGSLRLSCAASGSTFGDSDMGWYRQAPGKGCELVSIISSDGRTYYVDSVKGRFTISQDNSKNTLYLQMNSLRAEDTAVYYCAADLRQYCRDGRCCGYWGQGTLVTVSSTTTPAPRPPTPAPTIASQPLSLRPEACRPAAGGAVHTRGLDFACDIYIWAPLAGTCGVLLLSLVITLYCKRGRKKLLYIFKQPFMRPVQTTQEEDGCSCRFPEEEEGGCELRVKFSRSADAPAYKQGQNQLYNELNLGRREEYDVLDKRRGRDPEMGGKPRRKNPQEGLYNELQKDKMAEAYSEIGMKGERRRGKGHDGLYQGLSTATKDTYDALHMQALPPR
# B6: AS48463VH4dil-bbz CAR (other)
# chain: EVQLLESGGGLVQPGGSLRLSCAASGFTFANSDMGWYRQAPGKGCELVSIISSHGGTTYYVDSVKGRFTISRDNSKNTLYLQMNSLRAEDTAVYYCVADPRSNCRGGYCCGYWGQGTLVTVSSGGGGSGGGGSGGGGSEVQLLESGGGLVQPGGSLRLSCAASGFTFANSDMGWYRQAPGKGCELVSIISSHGGTTYYVDSVKGRFTISRDNSKNTLYLQMNSLRAEDTAVYYCVADPRSNCRGGYCCGYWGQGTLVTVSSTTTPAPRPPTPAPTIASQPLSLRPEACRPAAGGAVHTRGLDFACDIYIWAPLAGTCGVLLLSLVITLYCKRGRKKLLYIFKQPFMRPVQTTQEEDGCSCRFPEEEEGGCELRVKFSRSADAPAYKQGQNQLYNELNLGRREEYDVLDKRRGRDPEMGGKPRRKNPQEGLYNELQKDKMAEAYSEIGMKGERRRGKGHDGLYQGLSTATKDTYDALHMQALPPR
# B7: AS53574VH7-AS48463VH4bil-bbz CAR (other)
# chain: EVQLVESGGGLVQPGGSLRLSCAASGYIYSSNCMGWFRQAPGKGREWVARIHTGSGSTYYADSVKGRFTISQDNSKNTLYLQMNSLRAEDTAVYDCAAGRVVLGAVVCTNEYWGQGTLVTVSSGGGGSGGGGSGGGGSEVQLLESGGGLVQPGGSLRLSCAASGFTFANSDMGWYRQAPGKGCELVSIISSHGGTTYYVDSVKGRFTISRDNSKNTLYLQMNSLRAEDTAVYYCVADPRSNCRGGYCCGYWGQGTLVTVSSTTTPAPRPPTPAPTIASQPLSLRPEACRPAAGGAVHTRGLDFACDIYIWAPLAGTCGVLLLSLVITLYCKRGRKKLLYIFKQPFMRPVQTTQEEDGCSCRFPEEEEGGCELRVKFSRSADAPAYKQGQNQLYNELNLGRREEYDVLDKRRGRDPEMGGKPRRKNPQEGLYNELQKDKMAEAYSEIGMKGERRRGKGHDGLYQGLSTATKDTYDALHMQALPPR
# Biological target: T1, rhesus CD30 ECD
# Test: ELISA on rhesus CD30 ECD protein; member of the group by paragraph 437
row,binding result,Binder
1,binds,B1

# Biological target: T2, CD30 on CD30-expressing tumor cell …
# Test: cell-based or functional assay
"% H9 cell lysis E:T = 2:1 (LDH assay, CAR T cells)","% MJ cell lysis E:T = 1:1 (LDH assay, CAR T cells)",Binder
66%,64%,B2
64%,50%,B3
84%,76%,B4
72%,56%,B5
63%,53%,B6
78%,59%,B7

# Biological target: T3, recombinant human CD30 extra cellular …
# Test: SPR Biacore T200, His-tagged sdAb/Fab captured, 100.0 nM human CD30 as analyte, single curve
# Protocol: Some of these unique binders were subjected to for further characterization by surface plasmon resonance (SPR) on a BIAcore T200 instrument (GE Healthcare). The experiment was carried out as follows. The crude sdAb/Fab proteins were captured through an affinity tag (6×Histidine tag) onto the sensorchip. High-concentration (100.0 nM) of human CD30 (R&D systems, Cat. #6126-CD) flowed over the sensorchip surface, and were allowed to bind the antibody fragments for 300 s followed by injection of the running buffer to allow dissociation of the complex. On-rate ([…] and off-rate (kd) were roughly calculated based on one association and dissociation curve, and were used to estimate the equilibrium dissociation constant (KD). 5F11 scFv (SEQ ID NO:216, prepared according to WO2017066122) was used as a positive control. Data were summarized in Table 3 below. The first 10 antibodies in Table 3 were sdAbs with amino acid sequence ID numbers summarized in Table 1, the last antibody was 5F11 scFv, and the remainings were human Fabs with CDR and scFv amino acid sequence ID numbers in Table 2.
Kd,koff,kon,rhCD30 Binding (RU),Binder
95 nM,0.0081 s⁻¹,86000 M⁻¹ s⁻¹,26.3 RU,B1

# Biological target: T2, CD30 on CD30-expressing tumor cell …
# Test: cell-based or functional assay
# Remark: another data set of the same source
"% H9 cell lysis E:T = 0.2:1 (FACS method, CAR T cells)","% MJ cell lysis E:T = 0.2:1 (FACS method, CAR T cells)",Binder
40.4%,63.4%,B2
44.2%,30.4%,B3
29.8%,50.5%,B4
41.6%,71.3%,B5
30.8%,26.3%,B6
38.3%,40.7%,B7
